We go through 46 substances from PMC4072508, “Genome-Wide Prediction and Validation of Peptides That Bind Human Prosurvival Bcl-2 Proteins” (PLoS Computational Biology, 2014).

Like-named read-outs stand apart in the source and are kept apart here.

In test [1] the target is T1, Mcl-1 (Homo sapiens, UniProt Q07820).
T1 construct: myc-Mcl-1 SPOT array & FP; made in house
Particulars: cited from earlier work. The source says:
Negative control mutatio ...

The target in the next test is T2, Bcl-xL (Homo sapiens, UniProt Q07817).
T2 construct: myc-Bcl-xL SPOT array & FP; made in house
T2 sequence (Q07817 with tags, fused parts or gaps): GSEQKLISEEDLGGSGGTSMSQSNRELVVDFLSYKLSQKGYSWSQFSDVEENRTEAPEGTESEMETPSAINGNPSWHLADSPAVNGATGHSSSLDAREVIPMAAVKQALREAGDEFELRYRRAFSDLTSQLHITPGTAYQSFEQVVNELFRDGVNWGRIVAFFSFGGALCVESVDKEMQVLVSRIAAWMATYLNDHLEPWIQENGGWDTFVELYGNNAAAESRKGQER
Description: LUMIER full-length protein interaction. The test is classed as binding. Particulars: LUMIER results for Bcl-xL; for z-score 1.1: experiment 1, duplicate 1; for z-score 2.1: experiment 2, duplicate 1; for z-score 2.2: experiment 2, duplicate 2; for z-score 1.2: experiment 1, duplicate 2. As for the experimental part: (§1) The LUMIER assay was carried out as previously described with the following modifications. A stable cell line expressing receptor tagged on the N-terminus with Nanoluc luciferase was created (the prey). […] Each bait construct was transfected into the receptor-luciferase cells in a 96-well format and after 48 hours the cells were lysed and transferred to 384-well plates coated with anti-FLAG. After incubation and washing, luminescence was measured to quantify how much receptor-luciferase was captured by the bait protein. Anti-Flag ELISA signal was used to exclude bait proteins that were not expressed. The experiment was carried out two times, each in duplicate.

For test [2], the target named is T1, Mcl-1. Put plainly: LUMIER full-length protein interaction. The test is classed as binding. The following applies: LUMIER results for Mcl-1, Z-score relative to Gaussian fit of the data; for z-score 1.2: experiment 1, duplicate 2; for z-score 2.1: experiment 2, duplicate 1; for z-score 2.2: experiment 2, duplicate 2. As for the experimental part: as §1
[3] abbreviates: read-out: Binder class, Mcl-1, natural BH3 peptides, interactions taken from literature.
The mark [4] stands for this setting: read-out: KD, Mcl-1, previously reported.
[5] abbreviates: read-out: Binder class, Mcl-1, S1 Bim variants, specific binding measured using yeast display, ref Dutta et al. (2010).
Setting [6] is: Z-score relative to Gaussian fit of the data.
The mark [7] stands for this setting: Z-score of the interaction relative to the Gaussian fit of the data.

T1 sequence (Q07820 with tags, fused parts or gaps): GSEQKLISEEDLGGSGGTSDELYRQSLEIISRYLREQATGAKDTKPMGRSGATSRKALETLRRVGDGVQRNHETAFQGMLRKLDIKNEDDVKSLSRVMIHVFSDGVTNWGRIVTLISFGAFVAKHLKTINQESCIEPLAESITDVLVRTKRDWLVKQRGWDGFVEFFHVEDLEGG

With AAQLTAARLKALGDELHQRTMWR [Hrk], the Kd with Mcl-1 [1] (setting [3]) is more than 10000 nM.

With “AAQRYGRELRRMSDEFVDSFKKG (LWAAQRYGRELRRMSDEFVDSFKKGL) [Bad]”, the figures for the Kd in the test with Mcl-1 [1] (setting [3]) and with Mcl-1 [1] (setting [4]) were less than 1000 nM and more than 2500 nM, respectively.

For the substance “AEVQIARKLQCIADQFHRLHVQQ (HQAEVQIARKLQCIADQFHRLHVQQH) [Bmf]”, the Kd in the test with Mcl-1 [1] (setting [3]) is more than 10000 nM.

Regarding “EGEKEVEALKKSADWVSDWSSRP (VVEGEKEVEALKKSADWVSDWSSRPE) [BNIP3L]”, the Kd was more than 10000 nM with Mcl-1 [1] (setting [3]) and more than 2500 nM with Mcl-1 [1] (setting [4]).

As to “IIRNIARHLAQVGDSMDRSIPPG (EDIIRNIARHLAQVGDSMDRSIPPGL) [Bid]”, the Kd with Mcl-1 [1] (setting [3]) was less than 1000 nM.

As for “LEVECATQLRRFGDKLNFRQKLL (AELEVECATQLRRFGDKLNFRQKLLN) [Noxa]”, the Kd with Mcl-1 [1] (setting [3]) was more than 10000 nM.

For “MTQEVGQLLQDMGDDVYQQYRSL (GVMTQEVGQLLQDMGDDVYQQYRSLT) [Mule]”, the Kd with Mcl-1 [1] (setting [3]) is more than 10000 nM.

Regarding PEIWAAQEIRRIGDENNAYYARR, in the test with Mcl-1 [1] (setting [5]), the Kd was less than 1000 nM.

For the substance PEIWAAQEIRRIGDESNAYYARR, in the test with Mcl-1 [1] (setting [5]), the Kd is less than 1000 nM.

Regarding PEIWDAQELGRIGDEVNAYYARR, the Kd in the test with Mcl-1 [1] (setting [5]) is less than 1000 nM.

As for PEIWFAQEARRYGDEFNAYYARR, the Kd with Mcl-1 [1] (setting [5]) is more than 10000 nM.

Regarding PEIWFAQEFSRIGDEVNAYYARR, in the test with Mcl-1 [1] (setting [5]), the Kd is less than 1000 nM.

In the case of PEIWFAQEIDRIGDEVNAYYARR, the Kd with Mcl-1 [1] (setting [5]) was less than 1000 nM.

Regarding PEIWFAQEIERIGDEVNAYYARR, in the test with Mcl-1 [1] (setting [5]), the Kd was less than 1000 nM.

On to PEIWFAQEIRRDGDEFNAYYARR, for which, in the test with Mcl-1 [1] (setting [5]), the Kd was more than 10000 nM.

On to PEIWFAQELKRFGDEANAYYARR, for which the Kd with Mcl-1 [1] (setting [5]) was more than 10000 nM.

For PEIWFAQELKRNGDEYNAYYARR, the Kd with Mcl-1 [1] (setting [5]) was more than 10000 nM.

As for PEIWFAQELRRDGDEFNAYYARR, in the test with Mcl-1 [1] (setting [5]), the Kd is more than 10000 nM.

For PEIWFAQELRRDGDEYNAYYARR, the Kd with Mcl-1 [1] (setting [5]) is more than 10000 nM.

Regarding PEIWFAQELSRNGDEFNAYYARR, the Kd with Mcl-1 [1] (setting [5]) is more than 10000 nM.

On to PEIWFAQELSRYGEEYNAYYARR, for which the Kd in the test with Mcl-1 [1] (setting [5]) is more than 10000 nM.

Consider PEIWFAQEVGRIGDEINAYYARR, for which, in the test with Mcl-1 [1] (setting [5]), the Kd is less than 1000 nM.

Regarding PEIWFAQEVGRIGDEVNAYYARR, the Kd in the test with Mcl-1 [1] (setting [5]) was less than 1000 nM.

Take PEIWFAQEVNRIGDEVNAYYARR: the Kd in the test with Mcl-1 [1] (setting [5]) was more than 10000 nM.

PEIWIAQEFQRAGDEYNAYYARR: the Kd in the test with Mcl-1 [1] (setting [5]) was more than 10000 nM.

As for PEIWIAQEFQRNGDEYNAYYARR, in the test with Mcl-1 [1] (setting [5]), the Kd is more than 10000 nM.

For PEIWIAQEIDRIGDEFNAYYARR, in the test with Mcl-1 [1] (setting [5]), the Kd was less than 1000 nM.

With PEIWIAQEIDRIGDETNAYYARR, in the test with Mcl-1 [1] (setting [5]), the Kd was less than 1000 nM.

Regarding PEIWIAQEIDRIGDEVNAYYARR, the Kd in the test with Mcl-1 [1] (setting [5]) is less than 1000 nM.

For the substance PEIWIAQEIDRIGNEINAYYARR, the Kd with Mcl-1 [1] (setting [5]) was less than 1000 nM.

For the substance PEIWIAQEIGRIGDETNAYYARR, the Kd with Mcl-1 [1] (setting [5]) was less than 1000 nM.

As to PEIWIAQEIGRIGNEVNAYYARR, the Kd in the test with Mcl-1 [1] (setting [5]) is less than 1000 nM.

For PEIWIAQEIGRTGDEVNAYYARR, in the test with Mcl-1 [1] (setting [5]), the Kd was less than 1000 nM.

On to RBL1 (WTLFVYTKGNFRMIGDDLVNSYHLLL), for which, in the test with Bcl-xL (setting [6]), the “z-score 1.1” value is 5.112, the “z-score 2.1” value stood at 2.327 and the “z-score 2.2” value is listed as 1.895. Further, in the test with Mcl-1 [2], the “z-score 1.2” value stood at 0.3355, the “z-score 2.1” value is on record as 1.744 and the “z-score 2.2” value came out at 0.6936.

With RNF160 (WLKGDILGEKLVNLADCLCNEDLESR), in the test with Bcl-xL (setting [6]), the “z-score 1.1” value is -0.1237, the “z-score 1.2” value is listed as 0.7519, the “z-score 2.1” value came out at 2.286 and the “z-score 2.2” value is given as 3.519. Moreover, in the test with Mcl-1 [2], the “z-score 1.2” value is 0.2603 and the “z-score 2.2” value is listed as -0.3716.

Turning to SGCA (LFWTPLLVVLLAGLGDTEAQQTTLHP), in the test with Bcl-xL (setting [6]), the “z-score 1.1” value was 1.122, the “z-score 1.2” value was 0.5458, the “z-score 2.1” value is 0.3748 and the “z-score 2.2” value is 0.07051. In the test with Mcl-1 [2], the “z-score 1.2” value was 1.007, the “z-score 2.1” value worked out at 0.04852 and the “z-score 2.2” value is -0.477.

As to SIPA1 (TAGLRPGARLLRVCGQTLPSLRPEAA), in the test with Bcl-xL (setting [6]), the “z-score 1.1” value stood at 0.6815, the “z-score 2.1” value was found to be 3.9688 and the “z-score 2.2” value came out at 2.046. In the test with Mcl-1 [2], the “z-score 1.2” value worked out at 0.6268, the “z-score 2.1” value was -0.03415 and the “z-score 2.2” value is -0.3116.

Turning to SMPD2 (PYLSKHRADRMRRLGDFLNQESFDLA), in the test with Bcl-xL (setting [6]), the “z-score 1.1” value is -0.2083, the “z-score 1.2” value was 2.876, the “z-score 2.1” value is -0.2736 and the “z-score 2.2” value worked out at 2.724. Besides, in the test with Mcl-1 [2], the “z-score 1.2” value is given as -0.1967, the “z-score 2.1” value is -0.5316 and the “z-score 2.2” value is listed as -0.9514.

With STK11IP (DSLLWKLAGLLRESGDVVLSGCSTLS), in the test with Bcl-xL (setting [6]), the “z-score 1.1” value was -2.105, the “z-score 1.2” value was -2.491, the “z-score 2.1” value is -0.2948 and the “z-score 2.2” value worked out at 0.7075. Further, in the test with Mcl-1 [2], the “z-score 1.2” value turned out to be 0.4828, the “z-score 2.1” value is listed as -0.9757 and the “z-score 2.2” value is reported as -1.0129.

With TAP1 (MSILTIASAVLEFVGDGIYNNTMGHV), in the test with Bcl-xL (setting [6]), the “z-score 1.1” value is given as 3.909, the “z-score 1.2” value was -0.1665, the “z-score 2.1” value is reported as 0.7598 and the “z-score 2.2” value was -0.2. In the test with Mcl-1 [2], the “z-score 1.2” value is recorded as -0.7174, the “z-score 2.1” value is on record as 0.2302 and the “z-score 2.2” value is listed as -0.2533.

For the substance TMEM184C (SDIRDDISEQVRHVGRTVRGHPRKKL), in the test with Bcl-xL (setting [6]), the “z-score 1.1” value was -0.516, the “z-score 1.2” value was -0.4557, the “z-score 2.1” value came out at 0.7398 and the “z-score 2.2” value was found to be 0.3954. In the test with Mcl-1 [2], the “z-score 1.2” value came out at 0.404, the “z-score 2.1” value worked out at 2.487 and the “z-score 2.2” value is 1.818.

With TMEM214 (SFLSAHCASHLAWFGDSLTSLSQRLQ), in the test with Bcl-xL (setting [6]), the “z-score 1.1” value worked out at 0.1125, the “z-score 1.2” value is listed as -0.2947, the “z-score 2.1” value is recorded as -0.2028 and the “z-score 2.2” value came out at 0.228. Also, in the test with Mcl-1 [2], the “z-score 1.2” value is -0.396 and the “z-score 2.2” value is recorded as -0.9391.

As for TTC31 (DLSSTFVSLALRKVGDWPLSARREKG), in the test with Bcl-xL (setting [6]), the “z-score 1.1” value is recorded as 0.5842, the “z-score 1.2” value was found to be 0.512, the “z-score 2.1” value worked out at 0.1189 and the “z-score 2.2” value is given as 0.4568. Further, in the test with Mcl-1 [2], the “z-score 1.2” value was -0.2499, the “z-score 2.1” value is -0.5416 and the “z-score 2.2” value is reported as -0.2181.

On to WDR60 (GGRVKLVHSALIQLGDSLSHKGNEFW), for which, in the test with Bcl-xL (setting [7]), the “z-score 1.1” value came to 4.105, the “z-score 1.2” value worked out at 0.5337, the “z-score 2.1” value is listed as -0.08078 and the “z-score 2.2” value is listed as 0.3897. In the test with Mcl-1 [2], the “z-score 1.2” value was determined as 0.5442, the “z-score 2.1” value is 0.4209 and the “z-score 2.2” value came to 0.563.

For the substance WRAP53 (RKDAELLCWDLRQSGYPLWSLGREVT), in the test with Bcl-xL (setting [6]), the “z-score 1.1” value amounted to 0.8939, the “z-score 1.2” value is on record as -0.01936, the “z-score 2.1” value is given as 1.1339 and the “z-score 2.2” value was determined as 1.068. In the test with Mcl-1 [2], the “z-score 2.1” value worked out at 1.332 and the “z-score 2.2” value was determined as 1.084.

For ZNF295 (ERLKGQLCDVLLIVGDQKFRAHKNVL), in the test with Bcl-xL (setting [6]), the “z-score 1.1” value worked out at 0.6872, the “z-score 1.2” value is on record as -1.979, the “z-score 2.1” value is recorded as 2.441 and the “z-score 2.2” value was -0.4135. In addition, in the test with Mcl-1 [2], the “z-score 1.2” value is 0.3792, the “z-score 2.1” value is listed as -0.9697 and the “z-score 2.2” value is given as 0.1208.
